According to patent publication US20230265217A1 (published 2023):

B1: 6A-3 (VHH)
VHH: EVQLVESGGGLVQPGGSLRLSCAASGFTFSPSWMGWFRQAPGKEREFVATINEYGGRNYADSVKGRFTISADNSKNTAYLQMNSLKPEDTAVYYCARVDRDFDYWGQGTLVTVSS
B2: 3-31 (VHH)
VHH: EVQLVESGGGLVQPGGSLRLSCAASGSTFSINAMGWFRQAPGKEREFVAGITSSGGYTNYADSVKGRFTISADNSKNTAYLQMNSLKPEDTAVYYCAADGVPEYSDYASGPVWGQGTLVTVSS

Biological target: SARS-CoV-2 S protein trimer (Delta B.1.617.2 India variant) [SPN-C52He] (SARS-CoV-2, UniProt P0DTC2 16-1213)
Test: SPR

Row | Binder | Kd
1 | B1 | 0.449 nM
2 | B2 | < 0.016 nM
